From a protein production outcome set (Wang et al. 2014)

Test: label from the status in PepcDB records

Sequence | protein production
MNKSKIAGIMAKLNAVDNQLVEDVAYVRSRDFPNQRFDHQQGYKGSYGNGQTSYSQNSQFQQPLQNNNSFSFTRNFDLASYQDLTAPIPRWNESSLTTSWHAASMESGYEFMKDDESDEFDVAKAVTKQNRAGSTLISRVARHTLIVLTDTTWVSIHNNTNLRKCRRLTEQNRPRLTEQD | failed
SNSIGLRQSVSDKGIEIVNLLAPKVEMLGFDLLGAEYLLVPSGAILRLYIDIPFAMQPECMVSIDDCERVSREVSAYLDLEEPISGNYTLEVSSP | failed
MLSARTMKEVVYWSPKKVADWLLENAMPEYCEPLEHFTGQDLINLTQEDFKKPPLYRVSSDNGQRLLDMIETLKMEHHMEAHKN | not failed
MTPGSNIPLSAARVTVDVAAPVRLDVSGLLLTADGKVRSDDDFIFYNQPTGQGVTYRSGGGSAPDAIVVDTSAVPPGIEKIVVTASPDAAGQTFQGIEPTATIRNADDNAVLATFTPPQLGTETALVIVEVYLRNGAWKARAVGQGYSNGLAGIATDFGVTVEEPAAPATPPQPQAVTPPPPPAAAPTMPAAPPAPPAAPPAPAPGTGKINLDKGRVSLQKNQTVSLVKGGRPVLSQVKMGLGWEPAYRGKDIDLDASVIAYGPQRNHIDSCYFGKLSIVNGAIKHSGDNLTGEGGGDDEVIVVDLGRLPQEVSGLVFTVNSFSGQKFTEVAKAYCRLIDAASGEELVRFDLTSAEPQTGVMMAKLIRQYSGEWEMTAIGDFVKSRTVRGMVKPAAQAL | failed
MGLSNKFKSFFFLDEEEEYYEEEVAREPEPMQKKTKKEKPSKNRFYAVEEEDAKVVSMQGAQFSSRMVLAEPRVYAEAQELADYLKDYKTVVVNLQRISHDQATRIVDFLSGTVYALGGDIQRVGNNIFLTPDNVEVNGSISEMLDEQNFMLEHHHHHH | failed
MERVQRLRLTFGKTGEMTLLSHLDLLRLFERAVRRAHLPIAFSGGFHPSPRISTASALPLGVTSYGEIVDLEFYREVDAQTVLEQLRQQLPQEIPLYGCEVVPLSEPAASQALRAATYELLIRTPEPLERETWEQWLETLRATPEILYELTTKSGKTLEHHHHHH | failed
MFVELNNLLNTTPDRAEQGKLTLLCDAKTDGSFLVHHFLSFYLKANCKVCFVALIQSFSHYSIVGQKLGVSLTMARERGQLVFLEGLKSAVDVVFQAQKEPHPLQFLREANAGNLKPLFEFVREALKPVDSGEARWTYPVLLVDDLSVLLSLGMGAVAVLDFIHYCRATVCWELKGNMVVLVHDSGDAEDEENDILLNGLSHQSHLILRAEGLATGFCRDVHGQLRILWRRPSQPAVHRDQSFTYQYKIQDKSVSFFCQRNVSCCSVT | not failed
MRFKFLRGKLNHPIKCVCDNLSMDNQIMSTELYSQILEVIALVPFGKVATYGQIARLAGLPKHARLVGYTLKNIDQASDIPWHRIINAQGKVSTYHLNQIGENIQLNKLRDEGIVVLNGKINLKKYQWLVSQS | failed
MKKTTLVLSALALSIGFAMGPVSSVVAAETAASSSQQLPSLAPMLEKVMPSVVSINVEGSAPVSSAGARGMPPQFQQFFGDNSPFCQDGSPFQGSPMCQGDLGGLGQGMPSKREFRSLGSGVIIDAGKGYVVTNNHVVDNANKISVKLSDGRSFDAKVIGKDPRTDIALLQLKDAKNLTAIKIANSDQLRVGDYTVAIGNPYGLGETVTSGIVSALGRSGLNVENYENFIQTDAAINRGNSGGALINLNGELIGINTAILAPDGGNIGIGFAIPSNMVKNLTSQMVEFGQVKRGELGIMGTELNSELAKAMKVDAQKGAFISQVVPKSAAAKAGIKAGDIIVSMNGKAINSFAGFRAEIGTLPVGSKMTLGLLRDGKPINVDVVLEQSSHSQVESGNLYTGIEGAELSNSDVSGKKGVKVDSVKPGTAAARIGLKKGDIIMGINQQPVQNLGELRKILDAKPPVLALNIQRGDTSLYLLMQ | failed
MLVSCAMRLHSGVFPDYAEKLPQEEKMEKEDSFPQRVWQIVAAIPEGYVTTYGDVAKLAGSPRAARQVGGVLKRLPEGSTLPWHRVVNRHGTISLTGPDLQRQRQALLAEGVMVSGSGQIDLQRYRWNY | failed
MEGFSPPINTAQVDAKTKLDEKVDYSNLPCPVLYEELNREATMALKPELFEGFRLDYNKSLNQKFFLSHSILMGPTEVPNPTPSSEIIKIPTANYDFGAGFIDPKLYLIGRITTDGRLNARAKFDLTDNFSVKANALLTDEEDKSQGHLVIDYKGSDYRTQLQLGNNSVYAANYIQHVTPHLSLGGEAFWLGQQLMSGVGYAARYETDKTVASGQIASTGVAVMNYVHKVSEKLSFATDFIYNYLSRDVTASVGYDLITRQSRLRGKVDSNGVVAAYLEEQLPIGLRFLLSAEVDHVKKDYKFGFGVNAF | failed
MTGAVVVDIPLRWSDMDAQGHVNNVRISELVQESRNQAFYTNGAQEMLDTGIVVVSQDVEFLAPFVVDGSPLRVAVGCSQLGAARTVLDYRAWHHDVEVARARGTICPFDFATGRPRRLTDGERGAFESMKVESQQWKPIKVVDVSEAGDFIEVPIRWSDVDRQGHVNNVSLAGYLQEARILATTSWSPGMRRAGNYLWVVVRQDIRYRRQVLPTQRSCRVHTALTRLGTSSMTLAGSIATEEGSALDAATVLVCVDPKTGASVPIDDQTRQALSAYLVTV | failed
MHYDVIVIGGGPSGLMAAIGAAEEGANVLLLDKGNKLGRKLAISGGGRCNVTNRLPLDEIVKHIPGNGRFLYSAFSIFNNEDIITFFENLGVKLKEEDPGRMFPVSNKAQSVVDALLTRLKDLGVKIRTNTPVETIEYENGQTKAVILQTGEVLETNHVVIAVGGKSVPQTGSTGDGYAWAEKAGHTITELFPTEVPILSNEPFIRDRSLQGLALRDINLSVLNPKGKAIISHKMDMLFTHFGLSGPAALRCSQFVVKALKKFKTNTIQMSIDALPEENSEQLFQRMLKQMKEDPKKGIKNVLKGYVPERYFLFLLEKNEIDGSEQAGQVSHEKIRALVKDFKEFTVNVNGTQSIEKAFVTGGGVSVKEINPKEMSSKFTNGLYFCGEVLDIHGYTGGYNITSALVTGRIAGTTAGENAKMQY | not failed
MEQRRLASTEWVDIVNEENEVIAQASREQMRAQCLRHRATYIVVHDGMGKILVQRRTETKDFLPGMLDATAGGVVQADEQLLESARREAEEELGIAGVPFAEHGQFYFEDKNCRVWGALFSCVSHGPFALQEDEVSEVCWLTPEEITARCDEFTPDSLKALALWMKRNAKNEAVETETAE | not failed
MASDSGNQGTLCTLEFAVQMTCQSCVDAVRKSLQGVAGVQDVEVHLEDQMVLVHTTLPSQEVQALLEGTGRQAVLKGMGSGQLQN | not failed
MRKKQKLPFDKLAIALMSTSILLNAQSDIKANTVTEDTPAAEQAVETPQPTAVSEEVPSSKETKTPQTPDNAEETVADKANDLALQAPAKTADTPATSKATIRDLNDPSQVKTLQEKAGKGAGTVVAVIDAGFDKNHEAWRLTDKTKARYQSKEDLEKAKKEHGITYGEWVNDKVAYYHDYSKDGKTAVDQEHGTHVSGILSGNAPSETKEPYRLEGAMPEAQLLLMRVEIVNGLADYARNYAQAIRDAVNLGAKVINMSFGNAALAYANLPDETKKAFDYAKSKGVSIVTSAGNDSSFGGKTRLPLADHPDYGVVGTPAAADSTLTVASYSPDKQLTETATVKTADQQDKEMPVLSTNRFEPNKAYDYAYANRGMKEDDFKDVKGKIALIERGDIDFKDKIANAKKAGAVGVLIYDNQDKGFPIELPNVDQMPAAFISRKDGLLLKENPQKTITFNATPKVLPTASGTKLSRFSSWGLTADGNIKPDIAAPGQDILSSVANNKYAKLSGTSMSAPLVAGIMGLLQKQYEIQYPDMTPSERLDLAKKVLMSSATALYDEDEKAYFSPRQQGAGAVDAKKASAATMYVTDKDNTSSKVHLNNVSDKFEVTVTVHNKSDKPQELYYQATVQTDKVDGKHFALAPKALYETSWQKITIPANSSKQVTVPIDASRFSKDLLAQMKNGYFLEGFVRFKQDPKKEELMSIPYIGFRGDFGNLSALEKPIYDSKDGSSYYHEANSDAKDQLDGDGLQFYALKNNFTALTTESNPWTIIKAVKEGVENIEDIESSEITETIFAGTFAKQDDDSHYYIHRHANGKPYAAISPNGDGNRDYVQFQGTFLRNAKNLVAEVLDKEGNVVWTSEVTEQVVKNYNNDLASTLGSTRFEKTRWDGKDKDGKVVANGTYTYRVRYTPISSGAKEQHTDFDVIVDNTTLEVATSATFSTEDRRLTLASKPKTSQPIYRERIAYTYMDEDLPTTEYISPNEDGTFTLPEEAETMEGATVPLKMSDFTYVVEDMAGNITYTPVTKLLEGHSNKPEQDGSDQAPDKKPEAKPEQDGSGQTPDKKPETKPEKDSSGQTPGKTPQKGQPSRTLEKRSSKRALATKASARDQLPTTNDKDTNRLHLLKLVMTTFFFGLVAHIFKTKRQKETKK | failed
